From patent US20260167699A1 (Chugai, published 2026)

Molecular target: T1, FcγRIIIa (human, UniProt P08637 17-208)
T1 construct: extracellular domain; also called 3a; FcγRIIIa extracellular domain
Assay: SPR (Biacore);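 further: antibody variants captured on an SPR sensor chip, with FcγRIIIa passed over as analyte in HBS-EP+ buffer at 25 °C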

T1 sequence (P08637 other isoform, or with tags, fused parts or gaps): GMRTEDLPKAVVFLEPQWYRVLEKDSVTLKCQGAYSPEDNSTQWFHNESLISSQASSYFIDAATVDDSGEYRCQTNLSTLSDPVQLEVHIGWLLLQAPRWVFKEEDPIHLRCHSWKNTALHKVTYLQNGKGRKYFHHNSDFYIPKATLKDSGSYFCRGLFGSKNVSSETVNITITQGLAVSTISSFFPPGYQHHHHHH

| Binder | He/Con 3a |
| --- | --- |
| GpH7-A5/GpH7-B3 variant P331_14T/GpL16-k0 (antibody, human IgG1, kappa, copies: 1 + 1 + 2) heavy 1: not shown heavy 2: not shown light: DIVMTQSPLSLPVTPGEPASISCQASESLVHSNRNTYLHWYLQKPGQSPQLLIYKVSNRFSGVPDRFSGSGSGTDFTLKISRVEAEDVGVYYCSQNTHVPPTFGQGTKVEIERTVAAPSVFIFPPSDEQLKSGTASVVCLLNNFYPREAKVQWKVDNALQSGNSQESVTEQDSKDSTYSLSSTLTLSKADYEKHKVYACEVTHQGLSSPVTKSFNRGEC | 67.8 % of GpH7-A5/GpH7-B3/GpL16-k0 |
| GpH7-A5/GpH7-B3 variant P331_19Q/GpL16-k0 (antibody, human IgG1, kappa, copies: 1 + 1 + 2) heavy 1: not shown heavy 2: not shown light: DIVMTQSPLSLPVTPGEPASISCQASESLVHSNRNTYLHWYLQKPGQSPQLLIYKVSNRFSGVPDRFSGSGSGTDFTLKISRVEAEDVGVYYCSQNTHVPPTFGQGTKVEIERTVAAPSVFIFPPSDEQLKSGTASVVCLLNNFYPREAKVQWKVDNALQSGNSQESVTEQDSKDSTYSLSSTLTLSKADYEKHKVYACEVTHQGLSSPVTKSFNRGEC | 73.9 % of GpH7-A5/GpH7-B3/GpL16-k0 |
| GpH7-A5/GpH7-B3 variant P329_09D/GpL16-k0 (antibody, human IgG1, kappa, copies: 1 + 1 + 2) heavy 1: not shown heavy 2: not shown light: DIVMTQSPLSLPVTPGEPASISCQASESLVHSNRNTYLHWYLQKPGQSPQLLIYKVSNRFSGVPDRFSGSGSGTDFTLKISRVEAEDVGVYYCSQNTHVPPTFGQGTKVEIERTVAAPSVFIFPPSDEQLKSGTASVVCLLNNFYPREAKVQWKVDNALQSGNSQESVTEQDSKDSTYSLSSTLTLSKADYEKHKVYACEVTHQGLSSPVTKSFNRGEC | 52.5 % of GpH7-A5/GpH7-B3/GpL16-k0 |
| GpH7-A5/GpH7-B3 variant P329_02A/GpL16-k0 (antibody, human IgG1, kappa, copies: 1 + 1 + 2) heavy 1: not shown heavy 2: not shown light: DIVMTQSPLSLPVTPGEPASISCQASESLVHSNRNTYLHWYLQKPGQSPQLLIYKVSNRFSGVPDRFSGSGSGTDFTLKISRVEAEDVGVYYCSQNTHVPPTFGQGTKVEIERTVAAPSVFIFPPSDEQLKSGTASVVCLLNNFYPREAKVQWKVDNALQSGNSQESVTEQDSKDSTYSLSSTLTLSKADYEKHKVYACEVTHQGLSSPVTKSFNRGEC | 55.2 % of GpH7-A5/GpH7-B3/GpL16-k0 |
| GpH7-A5/GpH7-B3 variant P331_08L/GpL16-k0 (antibody, human IgG1, kappa, copies: 1 + 1 + 2) heavy 1: not shown heavy 2: not shown light: DIVMTQSPLSLPVTPGEPASISCQASESLVHSNRNTYLHWYLQKPGQSPQLLIYKVSNRFSGVPDRFSGSGSGTDFTLKISRVEAEDVGVYYCSQNTHVPPTFGQGTKVEIERTVAAPSVFIFPPSDEQLKSGTASVVCLLNNFYPREAKVQWKVDNALQSGNSQESVTEQDSKDSTYSLSSTLTLSKADYEKHKVYACEVTHQGLSSPVTKSFNRGEC | 66 % of GpH7-A5/GpH7-B3/GpL16-k0 |
| GpH7-A5/GpH7-B3 variant P331_07I/GpL16-k0 (antibody, human IgG1, kappa, copies: 1 + 1 + 2) heavy 1: not shown heavy 2: not shown light: DIVMTQSPLSLPVTPGEPASISCQASESLVHSNRNTYLHWYLQKPGQSPQLLIYKVSNRFSGVPDRFSGSGSGTDFTLKISRVEAEDVGVYYCSQNTHVPPTFGQGTKVEIERTVAAPSVFIFPPSDEQLKSGTASVVCLLNNFYPREAKVQWKVDNALQSGNSQESVTEQDSKDSTYSLSSTLTLSKADYEKHKVYACEVTHQGLSSPVTKSFNRGEC | 60.4 % of GpH7-A5/GpH7-B3/GpL16-k0 |
| GpH7-A5/GpH7-B3 variant P331_02A/GpL16-k0 (antibody, human IgG1, kappa, copies: 1 + 1 + 2) heavy 1: not shown heavy 2: not shown light: DIVMTQSPLSLPVTPGEPASISCQASESLVHSNRNTYLHWYLQKPGQSPQLLIYKVSNRFSGVPDRFSGSGSGTDFTLKISRVEAEDVGVYYCSQNTHVPPTFGQGTKVEIERTVAAPSVFIFPPSDEQLKSGTASVVCLLNNFYPREAKVQWKVDNALQSGNSQESVTEQDSKDSTYSLSSTLTLSKADYEKHKVYACEVTHQGLSSPVTKSFNRGEC | 82.5 % of GpH7-A5/GpH7-B3/GpL16-k0 |
| GpH7-A5/GpH7-B3 variant P331_12R/GpL16-k0 (antibody, human IgG1, kappa, copies: 1 + 1 + 2) heavy 1: not shown heavy 2: not shown light: DIVMTQSPLSLPVTPGEPASISCQASESLVHSNRNTYLHWYLQKPGQSPQLLIYKVSNRFSGVPDRFSGSGSGTDFTLKISRVEAEDVGVYYCSQNTHVPPTFGQGTKVEIERTVAAPSVFIFPPSDEQLKSGTASVVCLLNNFYPREAKVQWKVDNALQSGNSQESVTEQDSKDSTYSLSSTLTLSKADYEKHKVYACEVTHQGLSSPVTKSFNRGEC | 64.8 % of GpH7-A5/GpH7-B3/GpL16-k0 |
| GpH7-A5/GpH7-B3 variant P331_20W/GpL16-k0 (antibody, human IgG1, kappa, copies: 1 + 1 + 2) heavy 1: not shown heavy 2: not shown light: DIVMTQSPLSLPVTPGEPASISCQASESLVHSNRNTYLHWYLQKPGQSPQLLIYKVSNRFSGVPDRFSGSGSGTDFTLKISRVEAEDVGVYYCSQNTHVPPTFGQGTKVEIERTVAAPSVFIFPPSDEQLKSGTASVVCLLNNFYPREAKVQWKVDNALQSGNSQESVTEQDSKDSTYSLSSTLTLSKADYEKHKVYACEVTHQGLSSPVTKSFNRGEC | 71.9 % of GpH7-A5/GpH7-B3/GpL16-k0 |
| GpH7-A5/GpH7-B3 variant P331_15Y/GpL16-k0 (antibody, human IgG1, kappa, copies: 1 + 1 + 2) heavy 1: not shown heavy 2: not shown light: DIVMTQSPLSLPVTPGEPASISCQASESLVHSNRNTYLHWYLQKPGQSPQLLIYKVSNRFSGVPDRFSGSGSGTDFTLKISRVEAEDVGVYYCSQNTHVPPTFGQGTKVEIERTVAAPSVFIFPPSDEQLKSGTASVVCLLNNFYPREAKVQWKVDNALQSGNSQESVTEQDSKDSTYSLSSTLTLSKADYEKHKVYACEVTHQGLSSPVTKSFNRGEC | 74.9 % of GpH7-A5/GpH7-B3/GpL16-k0 |
| GpH7-A5/GpH7-B3 variant Q295_02A/GpL16-k0 (antibody, human IgG1, kappa, copies: 1 + 1 + 2) heavy 1: not shown heavy 2: not shown light: DIVMTQSPLSLPVTPGEPASISCQASESLVHSNRNTYLHWYLQKPGQSPQLLIYKVSNRFSGVPDRFSGSGSGTDFTLKISRVEAEDVGVYYCSQNTHVPPTFGQGTKVEIERTVAAPSVFIFPPSDEQLKSGTASVVCLLNNFYPREAKVQWKVDNALQSGNSQESVTEQDSKDSTYSLSSTLTLSKADYEKHKVYACEVTHQGLSSPVTKSFNRGEC | 111 % of GpH7-A5/GpH7-B3/GpL16-k0 |
| GpH7-A5/GpH7-B3 variant P331_16H/GpL16-k0 (antibody, human IgG1, kappa, copies: 1 + 1 + 2) heavy 1: not shown heavy 2: not shown light: DIVMTQSPLSLPVTPGEPASISCQASESLVHSNRNTYLHWYLQKPGQSPQLLIYKVSNRFSGVPDRFSGSGSGTDFTLKISRVEAEDVGVYYCSQNTHVPPTFGQGTKVEIERTVAAPSVFIFPPSDEQLKSGTASVVCLLNNFYPREAKVQWKVDNALQSGNSQESVTEQDSKDSTYSLSSTLTLSKADYEKHKVYACEVTHQGLSSPVTKSFNRGEC | 73.4 % of GpH7-A5/GpH7-B3/GpL16-k0 |
